# B1: Fructokinase-like 1, chloroplastic (Arabidopsis thaliana (Mouse-ear cress)), Q9M394 (parent)
# chain: MASLLIFPHLHHFDSSLDRREVLVVRHSQASRRFLTPKASINGSGITNGAAAETTSKPSRKGRKKKQTSTVIEKDNTETDPELNPELADYDDGIEFPYDDPPLVCCFGAVQKEFVPVVRVHDNPMHPDMYSQWKMLQWDPPEFGRAPGGPPSNVAISHVRLGGRAAFMGKVGEDDFGDELVLMMNQERVQTRAVKFDENSKTACTRVKIKFKDGKMMAETVKEPPEDSLFASELNLAVLKEARIFHFNSEVLTSPTMQSTLFTAIQWSKKFGGLIFFDLNLPLPLWRSRNETRKLIKKAWNEANIIEVSQQELEFLLDEDYYERRRNYTPQYFAEDFDQTKNRRDYYHYTPEEIKSLWHDKLKLLVVTDGTLRLHYYTPTFDGVVIGTEDVLITPFTCDRTGSGDAVVAGIMRKLTTCPEMFEDQDVMERQLRFAVAAGIIAQWTIGAVRGFPTESATQNLKEQVYVPSMW
# partner: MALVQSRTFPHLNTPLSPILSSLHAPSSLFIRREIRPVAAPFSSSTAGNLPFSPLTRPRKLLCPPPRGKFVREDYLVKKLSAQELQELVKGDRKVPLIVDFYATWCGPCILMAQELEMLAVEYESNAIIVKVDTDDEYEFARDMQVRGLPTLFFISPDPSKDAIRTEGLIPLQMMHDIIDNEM
# B2: Fructokinase-like 2, chloroplastic (Arabidopsis thaliana (Mouse-ear cress)), F4I0K2 (parent)
# chain: MASLSFTQFLSFPRCNADVPCLLQSHGFVKFRGERWNGKQSFSMAAGRRKLSESAPLEEEGNDGNGAVVGKKPSKSVKRTTKKKVVVKDEPLEEISEFLVDNDDVLDKESIVSALKPKKTRTRKKAAAASSDVEEVKTEKKVRRKRTVKKDKDVEDDLATIMDAEVSDVEEALAVESTDTESEEEEIDLSKHEGEDISHTYGWPPLVCCFGSAQHAFVPSGRPANRLLDYELHERMRDAKWAPEKYIRAPGGCAGGVAIALASLGGKVAFMGKLGADDYGQAMLYYLNVCKVQTRSVKIDGKRVTACSTMKISKRGRLKSTCIKPCAEDSLSKSEINVDVLKEAKMFYFSTHSLLDKKMMSTTIQAIKISKQLGNVIFYDLNLPLPLWHSSEETKSFIQEVWNLADVIEITKQELEFLCGIEPTEEFDTENNDISKFVHYPPETVEQLWHENLKVLFVTNGTSKIHYYTKEHNGAVSGMEDVPITPFTRDMSASGDGIVAGLIRMLTVQPDLMNNKGYLERTARYAIECGIIDQWLLAQTRGYPPKDDMEEEEDDEEEDEVESDPNGIRSITEKEYRTSKPYDEPDGPYVMKPVEEREYKKLELVGSMFEDGSL
# partner: B1 partner
# B3: Thioredoxin-like protein CITRX, chloroplastic (Arabidopsis thaliana (Mouse-ear cress)), Q9M7X9 (parent)
# chain: B1 partner
# partner: B1 chain
# B4: Thioredoxin-like protein CITRX, chloroplastic (Arabidopsis thaliana (Mouse-ear cress)), Q9M7X9 (parent)
# chain: B1 partner
# partner: B2 chain
# Variants of: B1
# Settings: with citrx_arath CITRX, Q9M7X9
row,Variant,effect of a mutation on the interaction
1,C106A,decreasing interaction
2,C105A;C106S,disrupting interaction

# Variants of: B2
# Settings: with citrx_arath CITRX, Q9M7X9
row,Variant,effect of a mutation on the interaction
1,C208A,decreasing interaction
2,C209A,decreasing interaction
3,C208A;C209A,disrupting interaction

# Variants of: B3
# Settings: with sckl1_arath FLN1, Q9M394
row,Variant,effect of a mutation on the interaction
1,C106S,decreasing interaction

# Variants of: B4
# Settings: with sckl2_arath FLN2, F4I0K2
row,Variant,effect of a mutation on the interaction
1,C106S,decreasing interaction

# — IntAct's records for PubMed 20511297
